Test results taken from the supplement of paper PMC10266784.

B1: library; numbered along this chain (parent)
chain: MAAAAAAAAEQQSSNGPVKKSMREKAVERRSVNKEHNSNFKAGYIPIDEDRLHKTGLRGRKGNLAICVIILLFILAVINLIITLVIWAVIRIGPNGCDSMEFHESGLLRFKQVSDMGVIHPLYKSTVGGRRNENLVITGNNQPIVFQQGTTKLSVENNKTSITSDIGMQFFDPRTQNILFSTDYETHEFHLPSGVKSLNVQKASTERITSNATSDLNIKVDGRAIVRGNEGVFIMGKTIEFHMGGNMELKAENSIILNGSVMVSTTRLPSSSSGDQLGSGDWVRYKLCMCADGTLFKVQVTSQNMGCQISDNPCGNTH

Variants of: B1
Assay: SGCB cell-surface expression functional score (HA stain, bin4 vs bin1, normalised to synonymous) (log10 ratio); higher = more cell-surface SGCB (functional)
Outline: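 HEK293 cells stably expressing alpha-, gamma- and delta-sarcoglycan received codon-saturation libraries of HA-tagged, YFP-fused human beta-sarcoglycan by lentiviral transduction at MOI <0.1, performed in duplicate. Cells positive for YFP were sorted after 72 hours and cultured for 5–7 days, then stained on ice with Alexa Fluor 647 anti-HA and fixed. Fixed cells were sorted into four 5% intensity bins and amplicon-sequenced, and the log ratio of highest-bin to lowest-bin variant frequency, as a median over codons and transductions, gives the functional score. Per section, synonymous variants were scaled to mean 0, SD 0.5.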

MAAAAAAAAEQQSSNGPVKKSMREKAVERRSVNKEHNSNFKAGYIPIDEDRLHKTGLRGRKGNLAICVIILLFILAVINLIITLVIWAVIRIGPNGCDSMEFHESGLLRFKQVSDMGVIHPLYKSTVGGRRNENLVITGNNQPIVFQQGTTKLSVENNKTSITSDIGMQFFDPRTQNILFSTDYETHEFHLPSGVKSLNVQKASTERITSNATSDLNIKVDGRAIVRGNEGVFIMGVTIEFHMGGNMELKAENSIILNGSVMVSTTRLPSSSSGDQLGSGDWVRYKLCMCADGTLFKVQVTSQNMGCQISDNPCGNTH [K237V] and MAAAAAAAAEQQSSNGPVKKSMREKAVERRSVNKEHNSNFKAGYIPIDEDRLHKTGLRGRKGNLAICVIILLFILAVINLIITLVIWAVIRIGPNGCDSMEFHESGLLRFKQVSDMGVIHPLYKSTVGGRRNENLVITGNNQPIVFQQGTTKLSVENNKTSITSDIGMQFFDPRTQNILFSTDYETHEFHLPSGVKSLNVQKASTERITSNATSDLNIKVDGRAIVRGNEGVFIMGWTIEFHMGGNMELKAENSIILNGSVMVSTTRLPSSSSGDQLGSGDWVRYKLCMCADGTLFKVQVTSQNMGCQISDNPCGNTH [K237W] are within 0.2 log units of each other in “SGCB cell-surface expression functional score (log10)” value: 0.29 for the first, 0.453 for the second.

Compared with MAAAAAAAAEQQSSNGPVKKSMREKAVERRSVNKEHNSNFKAGYIPIDEDRLHKTGLRGRKGNLAICVIILLFILAVINLIITLVIWAVIRIGPNGCDSMEFHESGLLRFKQVSDMGVIHPLYKSTVGGRRNENLVITGNNQPIVFQQGTTKLSVENNKTSITSDIGMQFFDPRTQNILFSTDYETHEFHLPSGVKSLNVQKASTERITSNATSDLNIKVDGRAIVRGNEGVFIMGYTIEFHMGGNMELKAENSIILNGSVMVSTTRLPSSSSGDQLGSGDWVRYKLCMCADGTLFKVQVTSQNMGCQISDNPCGNTH [K237Y], MAAAAAAAAEQQSSNGPVKKSMREKAVERRSVNKEHNSNFKAGYIPIDEDRLHKTGLRGRKGNLAICVIILLFILAVINLIITLVIWAVIRIGPNGCDSMEFHESGLLRFKQVSDMGVIHPLYKSTVGGRRNENLVITGNNQPIVFQQGTTKLSVENNKTSITSDIGMQFFDPRTQNILFSTDYETHEFHLPSGVKSLNVQKASTERITSNATSDLNIKVDGRAIVRGNEGVFIMGKPIEFHMGGNMELKAENSIILNGSVMVSTTRLPSSSSGDQLGSGDWVRYKLCMCADGTLFKVQVTSQNMGCQISDNPCGNTH [T238P] is lower in “SGCB cell-surface expression functional score (log10)” value: 0.48 for the first, -0.64 for the second.

Going from MAAAAAAAAEQQSSNGPVKKSMREKAVERRSVNKEHNSNFKAGYIPIDEDRLHKTGLRGRKGNLAICVIILLFILAVINLIITLVIWAVIRIGPNGCDSMEFHESGLLRFKQVSDMGVIHPLYKSTVGGRRNENLVITGNNQPIVFQQGTTKLSVENNKTSITSDIGMQFFDPRTQNILFSTDYETHEFHLPSGVKSLNVQKASTERITSNATSDLNIKVDGRAIVRGNEGVFIMGKMIEFHMGGNMELKAENSIILNGSVMVSTTRLPSSSSGDQLGSGDWVRYKLCMCADGTLFKVQVTSQNMGCQISDNPCGNTH [T238M] to MAAAAAAAAEQQSSNGPVKKSMREKAVERRSVNKEHNSNFKAGYIPIDEDRLHKTGLRGRKGNLAICVIILLFILAVINLIITLVIWAVIRIGPNGCDSMEFHESGLLRFKQVSDMGVIHPLYKSTVGGRRNENLVITGNNQPIVFQQGTTKLSVENNKTSITSDIGMQFFDPRTQNILFSTDYETHEFHLPSGVKSLNVQKASTERITSNATSDLNIKVDGRAIVRGNEGVFIMGKAIEFHMGGNMELKAENSIILNGSVMVSTTRLPSSSSGDQLGSGDWVRYKLCMCADGTLFKVQVTSQNMGCQISDNPCGNTH [T238A], the “SGCB cell-surface expression functional score (log10)” value falls from 0.93 to 0.6.

MAAAAAAAAEQQSSNGPVKKSMREKAVERRSVNKEHNSNFKAGYIPIDEDRLHKTGLRGRKGNLAICVIILLFILAVINLIITLVIWAVIRIGPNGCDSMEFHESGLLRFKQVSDMGVIHPLYKSTVGGRRNENLVITGNNQPIVFQQGTTKLSVENNKTSITSDIGMQFFDPRTQNILFSTDYETHEFHLPSGVKSLNVQKASTERITSNATSDLNIKVDGRAIVRGNEGVFIMGKDIEFHMGGNMELKAENSIILNGSVMVSTTRLPSSSSGDQLGSGDWVRYKLCMCADGTLFKVQVTSQNMGCQISDNPCGNTH [T238D] and MAAAAAAAAEQQSSNGPVKKSMREKAVERRSVNKEHNSNFKAGYIPIDEDRLHKTGLRGRKGNLAICVIILLFILAVINLIITLVIWAVIRIGPNGCDSMEFHESGLLRFKQVSDMGVIHPLYKSTVGGRRNENLVITGNNQPIVFQQGTTKLSVENNKTSITSDIGMQFFDPRTQNILFSTDYETHEFHLPSGVKSLNVQKASTERITSNATSDLNIKVDGRAIVRGNEGVFIMGKNIEFHMGGNMELKAENSIILNGSVMVSTTRLPSSSSGDQLGSGDWVRYKLCMCADGTLFKVQVTSQNMGCQISDNPCGNTH [T238N] are within 0.2 log units of each other in “SGCB cell-surface expression functional score (log10)” value: 0.72 for the first, 0.67 for the second.

MAAAAAAAAEQQSSNGPVKKSMREKAVERRSVNKEHNSNFKAGYIPIDEDRLHKTGLRGRKGNLAICVIILLFILAVINLIITLVIWAVIRIGPNGCDSMEFHESGLLRFKQVSDMGVIHPLYKSTVGGRRNENLVITGNNQPIVFQQGTTKLSVENNKTSITSDIGMQFFDPRTQNILFSTDYETHEFHLPSGVKSLNVQKASTERITSNATSDLNIKVDGRAIVRGNEGVFIMGKCIEFHMGGNMELKAENSIILNGSVMVSTTRLPSSSSGDQLGSGDWVRYKLCMCADGTLFKVQVTSQNMGCQISDNPCGNTH [T238C] and MAAAAAAAAEQQSSNGPVKKSMREKAVERRSVNKEHNSNFKAGYIPIDEDRLHKTGLRGRKGNLAICVIILLFILAVINLIITLVIWAVIRIGPNGCDSMEFHESGLLRFKQVSDMGVIHPLYKSTVGGRRNENLVITGNNQPIVFQQGTTKLSVENNKTSITSDIGMQFFDPRTQNILFSTDYETHEFHLPSGVKSLNVQKASTERITSNATSDLNIKVDGRAIVRGNEGVFIMGKIIEFHMGGNMELKAENSIILNGSVMVSTTRLPSSSSGDQLGSGDWVRYKLCMCADGTLFKVQVTSQNMGCQISDNPCGNTH [T238I] are within 0.2 log units of each other in “SGCB cell-surface expression functional score (log10)” value: 0.64 for the first, 0.62 for the second.

MAAAAAAAAEQQSSNGPVKKSMREKAVERRSVNKEHNSNFKAGYIPIDEDRLHKTGLRGRKGNLAICVIILLFILAVINLIITLVIWAVIRIGPNGCDSMEFHESGLLRFKQVSDMGVIHPLYKSTVGGRRNENLVITGNNQPIVFQQGTTKLSVENNKTSITSDIGMQFFDPRTQNILFSTDYETHEFHLPSGVKSLNVQKASTERITSNATSDLNIKVDGRAIVRGNEGVFIMGKFIEFHMGGNMELKAENSIILNGSVMVSTTRLPSSSSGDQLGSGDWVRYKLCMCADGTLFKVQVTSQNMGCQISDNPCGNTH [T238F] and MAAAAAAAAEQQSSNGPVKKSMREKAVERRSVNKEHNSNFKAGYIPIDEDRLHKTGLRGRKGNLAICVIILLFILAVINLIITLVIWAVIRIGPNGCDSMEFHESGLLRFKQVSDMGVIHPLYKSTVGGRRNENLVITGNNQPIVFQQGTTKLSVENNKTSITSDIGMQFFDPRTQNILFSTDYETHEFHLPSGVKSLNVQKASTERITSNATSDLNIKVDGRAIVRGNEGVFIMGKEIEFHMGGNMELKAENSIILNGSVMVSTTRLPSSSSGDQLGSGDWVRYKLCMCADGTLFKVQVTSQNMGCQISDNPCGNTH [T238E] are within 0.2 log units of each other in “SGCB cell-surface expression functional score (log10)” value: 0.86 for the first, 0.87 for the second.

Going from MAAAAAAAAEQQSSNGPVKKSMREKAVERRSVNKEHNSNFKAGYIPIDEDRLHKTGLRGRKGNLAICVIILLFILAVINLIITLVIWAVIRIGPNGCDSMEFHESGLLRFKQVSDMGVIHPLYKSTVGGRRNENLVITGNNQPIVFQQGTTKLSVENNKTSITSDIGMQFFDPRTQNILFSTDYETHEFHLPSGVKSLNVQKASTERITSNATSDLNIKVDGRAIVRGNEGVFIMGKSIEFHMGGNMELKAENSIILNGSVMVSTTRLPSSSSGDQLGSGDWVRYKLCMCADGTLFKVQVTSQNMGCQISDNPCGNTH [T238S] to MAAAAAAAAEQQSSNGPVKKSMREKAVERRSVNKEHNSNFKAGYIPIDEDRLHKTGLRGRKGNLAICVIILLFILAVINLIITLVIWAVIRIGPNGCDSMEFHESGLLRFKQVSDMGVIHPLYKSTVGGRRNENLVITGNNQPIVFQQGTTKLSVENNKTSITSDIGMQFFDPRTQNILFSTDYETHEFHLPSGVKSLNVQKASTERITSNATSDLNIKVDGRAIVRGNEGVFIMGKKIEFHMGGNMELKAENSIILNGSVMVSTTRLPSSSSGDQLGSGDWVRYKLCMCADGTLFKVQVTSQNMGCQISDNPCGNTH [T238K], the “SGCB cell-surface expression functional score (log10)” value falls from 0.64 to 0.3.

Compared with MAAAAAAAAEQQSSNGPVKKSMREKAVERRSVNKEHNSNFKAGYIPIDEDRLHKTGLRGRKGNLAICVIILLFILAVINLIITLVIWAVIRIGPNGCDSMEFHESGLLRFKQVSDMGVIHPLYKSTVGGRRNENLVITGNNQPIVFQQGTTKLSVENNKTSITSDIGMQFFDPRTQNILFSTDYETHEFHLPSGVKSLNVQKASTERITSNATSDLNIKVDGRAIVRGNEGVFIMGKHIEFHMGGNMELKAENSIILNGSVMVSTTRLPSSSSGDQLGSGDWVRYKLCMCADGTLFKVQVTSQNMGCQISDNPCGNTH [T238H], MAAAAAAAAEQQSSNGPVKKSMREKAVERRSVNKEHNSNFKAGYIPIDEDRLHKTGLRGRKGNLAICVIILLFILAVINLIITLVIWAVIRIGPNGCDSMEFHESGLLRFKQVSDMGVIHPLYKSTVGGRRNENLVITGNNQPIVFQQGTTKLSVENNKTSITSDIGMQFFDPRTQNILFSTDYETHEFHLPSGVKSLNVQKASTERITSNATSDLNIKVDGRAIVRGNEGVFIMGKLIEFHMGGNMELKAENSIILNGSVMVSTTRLPSSSSGDQLGSGDWVRYKLCMCADGTLFKVQVTSQNMGCQISDNPCGNTH [T238L] is higher in “SGCB cell-surface expression functional score (log10)” value: 0.24 for the first, 0.67 for the second.

Compared with MAAAAAAAAEQQSSNGPVKKSMREKAVERRSVNKEHNSNFKAGYIPIDEDRLHKTGLRGRKGNLAICVIILLFILAVINLIITLVIWAVIRIGPNGCDSMEFHESGLLRFKQVSDMGVIHPLYKSTVGGRRNENLVITGNNQPIVFQQGTTKLSVENNKTSITSDIGMQFFDPRTQNILFSTDYETHEFHLPSGVKSLNVQKASTERITSNATSDLNIKVDGRAIVRGNEGVFIMGKRIEFHMGGNMELKAENSIILNGSVMVSTTRLPSSSSGDQLGSGDWVRYKLCMCADGTLFKVQVTSQNMGCQISDNPCGNTH [T238R], MAAAAAAAAEQQSSNGPVKKSMREKAVERRSVNKEHNSNFKAGYIPIDEDRLHKTGLRGRKGNLAICVIILLFILAVINLIITLVIWAVIRIGPNGCDSMEFHESGLLRFKQVSDMGVIHPLYKSTVGGRRNENLVITGNNQPIVFQQGTTKLSVENNKTSITSDIGMQFFDPRTQNILFSTDYETHEFHLPSGVKSLNVQKASTERITSNATSDLNIKVDGRAIVRGNEGVFIMGKGIEFHMGGNMELKAENSIILNGSVMVSTTRLPSSSSGDQLGSGDWVRYKLCMCADGTLFKVQVTSQNMGCQISDNPCGNTH [T238G] is lower in “SGCB cell-surface expression functional score (log10)” value: 0.94 for the first, 0.71 for the second.

For MAAAAAAAAEQQSSNGPVKKSMREKAVERRSVNKEHNSNFKAGYIPIDEDRLHKTGLRGRKGNLAICVIILLFILAVINLIITLVIWAVIRIGPNGCDSMEFHESGLLRFKQVSDMGVIHPLYKSTVGGRRNENLVITGNNQPIVFQQGTTKLSVENNKTSITSDIGMQFFDPRTQNILFSTDYETHEFHLPSGVKSLNVQKASTERITSNATSDLNIKVDGRAIVRGNEGVFIMGKQIEFHMGGNMELKAENSIILNGSVMVSTTRLPSSSSGDQLGSGDWVRYKLCMCADGTLFKVQVTSQNMGCQISDNPCGNTH [T238Q], the “SGCB cell-surface expression functional score (log10)” value was 0.63.
